From patent US5670477A, “Method to enhance permeability of the blood/brain blood/nerve bariers to therapeutic agents” (Poduslo; Joseph F., priority 1995, dated 1997)

Tests used:
[1] = PS and Vp of the blood-nerve barrier, radioiodinated I.V. bolus; type: in vivo, rat (Sprague-Dawley)
Description: (§1) Free radioactive iodine was separated from the radiolabeled conjugates and agents by dialysis against 0.2M NaI.
(§2) After the final blood sample was collected, the animal was sacrificed, the brain and meninges removed, and the brain dissected into the cortex, caudateputamen (neostriatum), hippocampus, thalamus, brain stem, and cerebellum. The sciatic nerve was also rapidly removed and desheathed. Tissue was lyophilized, and dry weights were determined with a microbalance and converted to respective wet weights with wet weightry weight ratios previously determined for the desheathed rat sciatic nerve and the various brain regions. […] Statistical evaluations were performed using the t-test with significance accepted at the P<0.05 level.

[2] = plasma half-life from plasma clearance curves after I.V. bolus
Description: Animals and Reagents. Male Sprague-Dawley rats (24-weeks-old, 460-500 g) were obtained from Bio Lab (St. Paul) and were used to determine the PS and Vp measurements. All animals were kept for a minimum of 3 days under standard housing conditions and feeding schedules prior to the experiments. […] Insulin (Mr =6000) was obtained as humulin RU-100 from Eli Lily. […] Affinity purified human IgG was obtained from Accurate Chemicals (Mr =150,000). […] Plasma half-lives were determined from plasma clearance curves for all the proteins using the standard exponential decay equation in In Plot Scientific Graphics (Graph Pad Software).
The experimental protocol employed was based on the methods of Ohno et al. Am. […] Over the next 30 or 60 minutes, serial blood samples were collected from the brachial artery to generate a plasma washout curve.

[3] = PS and Vp of the blood-brain barrier, radioiodinated I.V. bolus; type: in vivo, rat (Sprague-Dawley); details: for PS of the BBB / Vp of the BBB: x ± SEM
Description: as §1, §2

[4] = isoelectric focusing (Coomassie blue); type: physicochemical; details: Coomassie blue stain
Description: Protein samples were solubilized in SDS under reducing conditions with 2-mercaptoethanol followed by electrophoresis and staining with Coomassie blue. Pharmacia low molecular weight calibration kit was used for the protein standards. The 40% Bio-Lyte 3/10 ampholyte from Bio-Rad was used for isoelectric focusing with an acrylamide monomer concentration of 25% T and 3% C. Polymerization time was 15 minutes, with 5 minutes allowed for sample diffusion. Electrophoresis time was 45 minutes with increasing voltage to a maximum voltage of 450 volts for the last 15 minutes. IEF standards were obtained from Bio-Rad and contained nine natural proteins with the isoelectic points ranging from 4.45 to 9.6 and were visualized with Coomassie blue.

[5] = tested on: choline acetyltransferase (ChAT); test: choline acetyltransferase (ChAT) activity in brain regions after parenteral administration; type: in vivo, mouse (BALB/cJ)
Description: Adult BALB/cJ mice were used. The injection site was alternated on a daily basis between I.M. (thigh) and I.V. injection (tail vein), and the vehicle consisted of 1.5 mg/ml of BSA in 0.9% NaCl. The amount of NGF or PUT-NGF injected was 15 μg/day/animal for a duration of 14 days. Three groups of animals (n=7) were injected with either vehicle alone, NGF, and PUT-NGF. At the end of the experiment, the brains were removed and dissected into five regions which included the septum, hippocampus, nucleus basalis (substantia innominata), caudate-putamen (neostriatum), and cortex and stored at -70° C. The septum was dissected from the hippocampus at the fornix and continued into the basal forebrain.
Subsequently, a radiochemical assay using [1-^14 C] acetyl-CoA was performed according to the method of Fonnum. Fonnum, "A rapid radiochemical method for the determination of choline acetyltransferase", J. Neurochem., 24, 407 (1975). Data were expressed as cpm/μg protein and are given as mean ± SEM. Protein concentration was determined by the BCA procedure (Smith et al., "Measurement of protein using bicinchoninic acid", Anal. Biochem., 150, 76 (1985)) with the Pierce assay kit using bovine serum albumin as a standard. Statistical analysis was by the unpaired t-test (two-tailed) with significance accepted as P<0.05.

[6] = 15 μg/day/animal, 14 days, x ± SEM, n = 7

SPD-SOD: SOD modified with spermidine using water-soluble carbodiimide at pH 4.7
PS of the BNB, RI vs. native protein ([1]; nerve): 10.8 | PS of the BNB, relative increase vs. native protein ([1]; nerve): 10.8 fold | Vp of the BNB, RI vs. native protein ([1]; nerve): 1.2 | PS of the BNB ([1]; nerve / endoneurium): 2.41e-05 mL/g/s | PS of the BNB ([1]; nerve, x ± SEM): 24.1 ± 1.23 ml/g/sec × 10^6 | Vp (residual plasma volume) of the BNB ([1]; nerve, x ± SEM): 3.03 ± 0.35 µL/g | t1 (plasma half-life) ([2]; Table 5, x ± SEM, n = 6): 45 ± 3 s | decrease of plasma half-life versus native protein ([2]; fold less than native protein): 4.9 fold | PS of the BBB, RI vs. native protein ([3]; brain stem): 11.8 | Vp of the BBB, RI vs. native protein ([3]; brain stem): 1.0 | PS of the BBB ([3]; brain stem): 36.85 ± 1.70 ml/g/sec × 10^6 | Vp of the BBB ([3]; brain stem): 13.94 ± 1.29 µL/g | PS of the BBB, RI vs. native protein ([3]; caudate-putamen): 18.3 | Vp of the BBB, RI vs. native protein ([3]; caudate-putamen): 1.4 | PS of the BBB ([3]; caudate-putamen): 32.65 ± 2.03 ml/g/sec × 10^6 | Vp of the BBB ([3]; caudate-putamen): 8.23 ± 0.40 µL/g | PS of the BBB, RI vs. native protein ([3]; cerebellum): 13.9 | Vp of the BBB, RI vs. native protein ([3]; cerebellum): 1.2 | PS of the BBB ([3]; cerebellum): 37.28 ± 1.01 ml/g/sec × 10^6 | Vp of the BBB ([3]; cerebellum): 12.59 ± 0.90 µL/g | PS of the BBB, RI vs. native protein ([3]; cortex): 13.9 | Vp of the BBB, RI vs. native protein ([3]; cortex): 1.2 | PS of the BBB ([3]; cortex): 25.00 ± 0.90 ml/g/sec × 10^6 | Vp of the BBB ([3]; cortex): 7.10 ± 0.31 µL/g | PS of the BBB, RI vs. native protein ([3]; hippocampus): 13.4 | Vp of the BBB, RI vs. native protein ([3]; hippocampus): 1.1 | PS of the BBB ([3]; hippocampus): 28.75 ± 1.39 ml/g/sec × 10^6 | Vp of the BBB ([3]; hippocampus): 7.73 ± 0.58 µL/g | PS of the BBB, RI vs. native protein ([3]; thalamus): 12.7 | Vp of the BBB, RI vs. native protein ([3]; thalamus): 1.2 | PS of the BBB ([3]; thalamus): 34.35 ± 1.42 ml/g/sec × 10^6 | Vp of the BBB ([3]; thalamus): 11.23 ± 0.63 µL/g

B1: NGF: Ultrapure 2.5S nerve growth factor (printed 2.55 NGF) from Harlan Bioproducts (protein, UniProt P01139 122-241, looked up)
Beta-nerve growth factor: SSTHPVFHMGEFSVCDSVSVWVGDKTTATDIKGKEVTVLAEVNINNSVFRQYFFETKCRASNPVESGCRGIDSKHWNSYCTTTHTFVKALTTDEKQAAWRFIRIDTACVCVLSRKATRRG
PS of the BNB ([1]; nerve, x ± SEM): 1.74 ± 0.15 ml/g/sec × 10^6 | Vp (residual plasma volume) of the BNB ([1]; nerve, x ± SEM): 1.53 ± 0.12 µL/g | pI (isoelectric point) [4]: major band with an isoelectric point less than cytochrome c | ChAT activity, caudate-putamen [5, 6]: 559 ± 47 cpm/μg protein | ChAT activity, cortex [5, 6]: 294 ± 9 cpm/μg protein | ChAT activity, hippocampus [5, 6]: 236 ± 17 cpm/μg protein | ChAT activity, nucleus basalis [5, 6]: 109 ± 15 cpm/μg protein | ChAT activity, septum [5, 6]: 443 ± 65 cpm/μg protein | ChAT activity versus comparator, in words ([5]; NGF vs vehicle: five brain regions, PUT-NGF vs NGF: hippocampus, caudate-putamen, cortex): no significant difference | ChAT activity, NGF vs. Vehicle % Increase ([5]; caudate-putamen): 18.4% | ChAT activity, NGF vs. Vehicle % Increase ([5]; cortex): 4.6% | ChAT activity, NGF vs. Vehicle % Increase ([5]; hippocampus): 0.4% | ChAT activity, NGF vs. Vehicle % Increase ([5]; nucleus basalis): 12.4% | ChAT activity, NGF vs. Vehicle % Increase ([5]; septum): 0.2% | PS of the BBB ([3]; brain stem): 3.38 ± 0.09 ml/g/sec × 10^6 | Vp of the BBB ([3]; brain stem): 16.60 ± 1.01 µL/g | PS of the BBB ([3]; caudate-putamen): 1.64 ± 0.04 ml/g/sec × 10^6 | Vp of the BBB ([3]; caudate-putamen): 5.78 ± 0.42 µL/g | PS of the BBB ([3]; cerebellum): 2.93 ± 0.10 ml/g/sec × 10^6 | Vp of the BBB ([3]; cerebellum): 11.54 ± 0.71 µL/g | PS of the BBB ([3]; cortex): 1.91 ± 0.07 ml/g/sec × 10^6 | Vp of the BBB ([3]; cortex): 7.19 ± 0.20 µL/g | PS of the BBB ([3]; hippocampus): 2.30 ± 0.10 ml/g/sec × 10^6 | Vp of the BBB ([3]; hippocampus): 8.56 ± 0.21 µL/g | PS of the BBB ([3]; thalamus): 2.79 ± 0.09 ml/g/sec × 10^6 | Vp of the BBB ([3]; thalamus): 11.65 ± 0.81 µL/g
